Earlier results in publication PMC12053642, “Oral PRI-002 treatment in patients with MCI or mild AD: a randomized, double-blind phase 1b trial” (Nature Communications, 2025).

System: early AD patients
Set-up: ADAS-cog: dose or concentration left out as unconfirmed
Conditions: cited from earlier work; for deceleration of progression measured by CDR-SB versus placebo: over 18 months, on average
Source text: After two decades of setbacks, the United States Food and Drug Administration (USFDA) full approvals for lecanemab[1] and donanemab[2] presents the beginning of a new decade for AD patients with several more drug candidates holding promise for marketing authorisation in the foreseeable future.

Row | Molecule | ADAS-Cog13 and CDR-SB (700 mg for the first 3 doses and 1400 mg thereafter i.v. every 4 weeks, after 12 weeks of treatment) | deceleration of progression measured by CDR-SB versus placebo | slowed decline on measures of cognition and function than placebo (early AD, at 18 months (CDR-SB, ADAS-cog14, ADCOMS, ADCS-MCI-ADL)) [%] | ADAS-cog (from week 12, most prominent at 6 months)
1 | donanemab: anti-amyloid therapeutic antibody [reference compound] | significant improvement | up to 36% | – | –
2 | lecanemab: anti-amyloid therapeutic antibody, claimed to preferentially target soluble Aβ protofibrils (antibody, chains of the INN, looked up, V domains shown) VH: EVQLVESGGGLVQPGGSLRLSCSASGFTFSSFGMHWVRQAPGKGLEWVAYISSGSSTIYYGDTVKGRFTISRDNAKNSLFLQMSSLRAEDTAVYYCAREGGYYYGRSYYTMDYWGQGTTVTVSS VL: DVVMTQSPLSLPVTPGAPASISCRSSQSIVHSNGNTYLEWYLQKPGQSPKLLIYKVSNRFSGVPDRFSGSGSGTDFTLRISRVEAEDVGIYYCFQGSHVPPTFGPGTKLEIK | – | up to 36% | 27 | symptomatic improvement
